The source of these data is US20130315946A1.

The target in this test is complement C3. Kind of test: ELISA, peptide coated on plate, serum C3 detected with anti-C3 antibody; relative to A2-0 (SPE B C192S). A general note: ELISA stands for enzyme-linked immunosorbent assay.

Consider ALGTGGGAGGFNGYQSAVVGIKP [SPE B376~398 (as set forth in SEQ ID NO: 8)], for which the binding ability relative to reference A2-0 is above 50%.
In the case of GADGRNFYHVNWGWG [SPE B346~360 (as set forth in SEQ ID NO: 6)] it was above 50%.
